Data reported in the supplement of paper PMC9170038.

tested on: K4 kissing-loop RNA reporter; assay: apparent KD of K4 kissing-loop reporter; higher = weaker reporter binding; conditions: Eterna round: R107; input ligand: arginine 13.2 mM
Protocol: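 RNA-MaP round R107: designed RNA switches with theophylline, tryptophan, arginine or FMN aptamers are transcribed on-chip within common flanks. They are titrated with a labelled K4 kissing-loop RNA reporter in RNA-MaP buffer (100 mM Tris pH 7.5, 80 mM KCl, 4 mM MgCl2), without ligand or with the indicated ligand. Median apparent KD per design.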
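Further: bound reporter read as fluorescence of individual clusters on recovered sequencing chips by microscopy, with normalized cluster intensities fitted with a binding model.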

Sequence | apparent KD of K4 kissing-loop reporter
AAUAUACAUUAAUUAAUUAAAGGUUCAGAAGGAGCGUGAAUUAACACAGGUAGGUCGCUGAGCGAGUGAUGUUCGCUAUAUACUA [JR_ExcArginiA_Sub004] | 73.1 nM
GGCCCGGGCGCGGCCGCCACUCCCUCGUACCGCAAGGUAUGAUACCGAGUGAUGUUCGGUUGGAGGAGGACCGGGCGCCCGGGCC [#2 Exclusion - Tryptophan B Attempt #5 (HarryS)] | 101 nM
UAAGAACAGUCGGCCGCCACUUGAACUACAGAAGUAGGUAUAGCACCGUGAGUGAUGUUCACUGAAAGGACCGGGACUUGCUCCG [theeternabot_sameState_KL_Trp_B_30] | 310 nM
GGAUAGGACAUAGGAUAUGGUAGUGAUGUUACCAAACUGGUUAAACAUGUCAGAAAACUGGCAUGACCAGAAGGGUGUCCUAUCG [FmnBX 27 U11+G75] | 54.2 nM
AGUGCAUGCUCGGCCGCCACUCAGAAGAAGAUAGAAGUGAUGUUUCUAAUGAUGAGAAUAAUAAAGAGGACCGGGAGAUGUGCAA [First try] | 125 nM
AGGGUAAGGCGUUAACAUGACACCUGGGAAGGAGCGCAGUACACUGCAGGUAGGUCGCCCAGUGAUGUUGGGCGUAUGUAUUAGU [Legexeso] | 143 nM
AGAAACUUGUAUGUCGGCCCUGCGCGCGAUACCAGCCAAAUGGAUGGCCCUUGGCAGCGCAGCGAGUGAUGUUCGCCCGGCUGAC [Exclusion Theophylline A GF 21] | 108 nM
UAAAUAAUUCAAGGAUAUGUUUUCUAUUUCGAGUGAUGUUCGGUCUUAAUAAAUUUAAUAGAUUAUACAGAAGGUGAUGGAUAGU [Astrostest] | 164 nM
GAACGGCUGGCGGCCGCCACUGGUAUACGAGUGAUGUUCGGAUACACAUAGAAUAAGGUGAUUGACAGGACCGGGUCAGAGCCGG [#15 K4 Tryptophan B Same State] | 197 nM
UGUCAUUGGUCGGCCGCCACUUCAGGUCAAAGACCAGAGUGAUGUUCUUGCACAAAGUGCUUAAGAAGGACCGGGACCGAUGACU [TrypBS 14 #SwitchBubble #K4Middle] | 53.5 nM
UGACUACAGGAAUAAUAAUCUUAGUGAUGUUAGGAUAUGCUGAUAAGCAGAAGGAACUGAGAUCGAAAGAUCUCAAAAGUAGUCU [#05 K4 FMN A Exclusion] | 167 nM
GGAUAGGACAGAGGAUAUGGAGCUAGGCAAGAAUAACUUGUCUAGCAAUCCAUGAGGAGUGAUGUUCCAGAAGGCUGUCCUAUCG [FmnBX 2 - #SwitchBubble #StraticStem #DoubleMagnetSystem] | 156 nM
UAGGAUUUUUCGGCCGCCACUCUAGAUUCUGUGUAUUAUCUACGACUUGAAGUGAUGUUUCAGGAGAGGACCGGGAAGAUAUAAC [theeternabot_exclusion_KL_Trp_B_27] | 210 nM
AAUAUAUUGUGAAGGAGCGCGAAAAGCAGUGAUGUUGCUUACUUACAAUUUAUUUUUUACACGCAGGUAGGUCGCACAAUAUAUA [JR_SSArginiB_Sub015] | 223 nM
GGGUGUAGUGCGGCCGCCACUGUGAAAGUAGAAGAAUAUAGUGAUGUUAUAUAGGAUUAAAAGAAUAGGACCGGGCAUUAGACUU [#23 K4 Tryptophan B Same State] | 236 nM
UGUCAUUGGUCUGAUACCAGAUGAUAAUCUGGAGUGAUGUUCCAAGAACGACAAAGUCGCAUCCCUUGGCAGCAGACCGAUGACU [TheoBS 18 #SwitchBubble 13 #StaticStem] | 151 nM

Sequence | apparent KD of K4 kissing-loop reporter
CCAUUCUUUUACGAUACCAGUUUAAUUUAUUUAUUCAUAACCCUUGCCGAGUGAUGUUCGGACCCUUGGCAGCGUUUGCGAGAGG [vvuvmullin] | 314 nM
CCGAGUAGCUCCGAUACCAGCACAAUCGUUCAAUGAUCCAUGCGCAAGUGAUGUUUGCGUUGCCCUUGGCAGCGGGCAAAAGCUU [theeternabot_sameState_KL_Theo_B_2] | 90 nM
UUUGUGAGUGAUGUUUGCAAUACGUUACCGAAGGAUAUUGUUGCGCCAAGAAGGUCGGAUGGAUCCAUGGGACAUGCCCUGGAGA [theeternabot_sameState_KL_FMN_A_45] | 384 nM
UUAGAUCAAAGAUCAGUCUUAUCAAGAGCACGAGGACCGGUACGGCCGCCACUCGAGUGAUGUUCGAGAGCUCUUGUGACAAAUU [AK2 EXC Tryptophan A] | 129 nM
UAAAUAAUAAAACGAGUGAUGUUCGACGAUACCAGCCUCGAUAGAGGCCCUUGGCAGCGUAAAUGAUCACAAAGCCAAGGAAUAA [#OpenEnded 1] | 174 nM
CGCCAGUGAUGUUGGCGCAGCUACCGGGAAGGAGCGCCGUAGUCGGCAGGUAGGUCGCCCGGGCAGUGAUGUUGCCUCAUACCGU [Exclusion Arginine A GF 21] | 247 nM
AAGGAUCAGAGAGUGAUGUUCUCUAAUAAACGAGGACCGGUACGGCCGCCACUCGAAUAAGAUCCAGUCCUACGAAAAGUAGGAC [Omei inspired 6] | 338 nM
AAAUAUAGUGAUGUUAUAUAUAUAUGUGAUACCAGAGAAAAGAAACUCCCUUGGCAGCACGAGAGAGAAUUUUUUUUUUAUAUAU [AstrosSSTheA#2] | 409 nM
AAUCCUUACGGAGUGAUGUUCCGUAGCGAUACCAGCCAUUGCGAUGGCCCUUGGCAGCGCUAUAAGCAUUGCUAUUAAGGGCCAA [Theo A Ex t7a] | 107 nM
GGGAGUAGUGCGGCCGCCACUGAGAAAGAAGAAGAAUAUAGUGAUGUUAUAUAGGAAAUAAAGAAUAGGACCGGGCAUUAGAUUU [SSTRyptB.M] | 211 nM
GCUACCUAGGCAGGAUAUCGUAUUGAGUGAUGUUCAAUAACGGUCUACCAAAGGUAGACCGACCUUCGAGAAGGGCCUAGGUAGC | 163 nM
AAUUAAUGUAUAGAUUAUAUACAUUAAUCAGAGGAUAUGCAUUAUUGCAGAAGGCUGAAUGCAGUGAUGUUGCAAUAAUAAUUUA [JR_SSFMNA_Sub003] | 229 nM
CAGAUAACCUAGGAUACCAGCGUCGCUGACAGGUCGCUGGAGAAGUACAGUGAUGUUGUGCGCCCUUGGCAGCCUGUUUACACAG [theeternabot_exclusion_KL_Theo_B_32] | 204 nM
GUGCGGCUAGUGAUGUUGGUUGCGUGGGAAGGAGCGCAGAAACAUGCAGGUAGGUCGCCCACAUCUCGGAUAAGAGACUAAUUCA [Letiisve] | 182 nM
GUGGAAAUCAGAAGGAGCGUCUACAAUAAGAAAACCAGUGAUGUUGGUUUUAUUUAAUGAAGACAGGUAGGUCGCUGAAUUUCUA [Same State Arginie B GF 20] | 106 nM
AAGCAGUCACUCGAAUCCAUCGAAGAUGGGCGAGGACCGGUACGGCCGCCACUCGGAGUGAUGUUCCGAAGACUGCAAAAUAAAA | 264 nM

same assay, conditions: Eterna round: R107; input ligand: none

Sequence | apparent KD of K4 kissing-loop reporter
AUUUAUUCGAGUGAUGUUCGUGUUUUUUCAGAGGAUAUGCGUAAUAGCAGAAGGCUGUUUUAUAUUAUAUUUUGAUUUUUUUAAA [JR_Nu_ExcFMNA_Sub025] | 86.1 nM
AUAAUCUUGCAGUGAUGUUGCAAGAAAGCUCAGGAUAUCAGGAAACUGAGAAGGGAGCAUCCUGAGCACUUGCAACAGUGCUCAG [[K1]-[K2]-[F1]-[F2]-[F]'-[K]'-[F]''_Design3] | 296 nM
UUUAUAAAGUCGGCCGCCACUGGUUUUAUUUUUGUUUAAUCUGGAUCAUAGUGAUGUUAUGAGACCAGGACCGGGACAUUUGUUA [#08 K4 Tryptophan B Exclusion] | 88.2 nM
UAUAUAGUGACGGCCGCCACUAUUGUGAUGUAGUUGUUAGAGUGAUGUUUUGUUGUUUGAUUUUGUAGGACCGGGUUAUAUGUUA [rccrwzmullin] | 812 nM
CCCAGUGAUGUUGGGAGUAGCCACAGGGAAGGAGCGUGCUAGAGCACAGGUAGGUCGCCCACUGGGUCAGUGAUGUUGGUCGGGU [Same State Arginine A GF 28] | 186 nM
CUUGGUCCACGAAGGAGCGCCGUGCAGUGAUGUUGCAGUCAGAUCGAGUGAUGUUUCGGGCGGCAGGUAGGUCGCGUGGCCCUUU [Excusion Arginine B GF 25] | 768 nM
CUUGAAAUGACUGAUACCAGUGAAAAUCUAUGUAGUGAUGUUAUAUACUAAUUUAAUAAGCGCCCUUGGCAGCAGUAUGAAUUAU [AstrosExc-theB#18] | 532 nM
UUUUACGAUACGGCCGCCACUGGUGUUAUAUAUUUGCAGGAGUGAUGUUCGUGCGAUCAUUCCAUCAGGACCGGGUAUACGCGGC [theeternabot_sameState_KL_Trp_B_43] | 318 nM
CGAGUGAUGUUCGUUCGUAUAUUUGGGUGACAGGAUAUGCGGAAACGCAGAAGGGUCACCUUCGGGUUACCCGAAUUGGCGUUAU [Model 1] | 427 nM
AGACCACAAAGUGGUCAGUGUUCGCAGCAGCGAGGACCGGUACGGCCGCCACUCGCGAGUGAUGUUCGCGAGAGCUGCGAACACA [Omei KL Tryp A Exc A v7] | 81.3 nM
AAUAUACAUUAAUUAAUUAAAGGUUCAGAAGGAGCGUGAAUUAACACAGGUAGGUCGCUGAGCGAGUGAUGUUCGCUAUAUACUA [JR_ExcArginiA_Sub004] | 69.5 nM
GGCCCGGGCGCGGCCGCCACUCCCUCGUACCGCAAGGUAUGAUACCGAGUGAUGUUCGGUUGGAGGAGGACCGGGCGCCCGGGCC [#2 Exclusion - Tryptophan B Attempt #5 (HarryS)] | 108 nM
UAAGAACAGUCGGCCGCCACUUGAACUACAGAAGUAGGUAUAGCACCGUGAGUGAUGUUCACUGAAAGGACCGGGACUUGCUCCG [theeternabot_sameState_KL_Trp_B_30] | 399 nM
GGAUAGGACAUAGGAUAUGGUAGUGAUGUUACCAAACUGGUUAAACAUGUCAGAAAACUGGCAUGACCAGAAGGGUGUCCUAUCG [FmnBX 27 U11+G75] | 61.8 nM
AGUGCAUGCUCGGCCGCCACUCAGAAGAAGAUAGAAGUGAUGUUUCUAAUGAUGAGAAUAAUAAAGAGGACCGGGAGAUGUGCAA [First try] | 149 nM
AGGGUAAGGCGUUAACAUGACACCUGGGAAGGAGCGCAGUACACUGCAGGUAGGUCGCCCAGUGAUGUUGGGCGUAUGUAUUAGU [Legexeso] | 153 nM
AGAAACUUGUAUGUCGGCCCUGCGCGCGAUACCAGCCAAAUGGAUGGCCCUUGGCAGCGCAGCGAGUGAUGUUCGCCCGGCUGAC [Exclusion Theophylline A GF 21] | 95.9 nM
UAAAUAAUUCAAGGAUAUGUUUUCUAUUUCGAGUGAUGUUCGGUCUUAAUAAAUUUAAUAGAUUAUACAGAAGGUGAUGGAUAGU [Astrostest] | 130 nM
GAACGGCUGGCGGCCGCCACUGGUAUACGAGUGAUGUUCGGAUACACAUAGAAUAAGGUGAUUGACAGGACCGGGUCAGAGCCGG [#15 K4 Tryptophan B Same State] | 234 nM
UGUCAUUGGUCGGCCGCCACUUCAGGUCAAAGACCAGAGUGAUGUUCUUGCACAAAGUGCUUAAGAAGGACCGGGACCGAUGACU [TrypBS 14 #SwitchBubble #K4Middle] | 63.3 nM
UGACUACAGGAAUAAUAAUCUUAGUGAUGUUAGGAUAUGCUGAUAAGCAGAAGGAACUGAGAUCGAAAGAUCUCAAAAGUAGUCU [#05 K4 FMN A Exclusion] | 202 nM
